Source: patent US20090214553A1

Molecular target: human CTLA-4-murine Ig fusion protein (human) (UniProt P16410)
Experiment: sandwich ELISA on the CTLA4-muIg standard with the blocking pair BNI3 (coated) and biotinylated AS-33 (detecting)

BNI3, CTLA-4 blocking mouse IgG2a mAb (antibody)
limit of sensitivity: 6.25 ng/mL
